We go through six molecules from patent US20150078996A1 (Merck Sharp & Dohme, published 2015).

As a reminder, the IC50 is the concentration at which inhibition is half-maximal. Higher therefore signals weaker potency.

Assay [1] addresses IR (insulin receptor) expressed on baculovirus-infected Sf9 insect cells (UniProt P06213). As to the kind of experiment: flow cytometry on Sf9 cells expressing IR. In general terms: In flow cytometry, cells or beads pass a laser one at a time.
The target in assay [2] is IGF-IR expressed on baculovirus-infected Sf9 insect cells (UniProt P08069). The assay can be described thus: flow cytometry on Sf9 cells expressing IGF-IR.
Assay [3] concerns the target IR (insulin receptor) expressed on baculovirus-infected Sf9 insect cells (UniProt P06213). The assay can be described thus: flow cytometry on Sf9 cells expressing IR, secondary antibody alone.
For assay [4], the target named is IGF-IR expressed on baculovirus-infected Sf9 insect cells (UniProt P08069). The assay can be described thus: flow cytometry on Sf9 cells expressing IGF-IR, secondary antibody alone.
The target in assay [5] is T1, IGF-IR expressed on baculovirus-infected Sf9 insect cells (UniProt P08069 31-1367, limits assumed).
T1 construct: whole, on cells; also called IGF-1R + cells
As to the kind of experiment: flow cytometry on Sf9 cells expressing IGF-IR.

Assay [6] has as its target T2, IR (insulin receptor) expressed on baculovirus-infected Sf9 insect cells (UniProt P06213 28-1382, limits assumed).
T2 construct: whole, on cells; also called IR + cells
As to the kind of experiment: flow cytometry on Sf9 cells expressing IR.

Assay [7] addresses recombinant human IGF-1R extracellular domains (R&D Systems) (human) (UniProt P08069). The assay can be described thus: SPR Biacore X, 5 min injection of 8.24 µg/ml over 439 RU of amine-coupled soluble IGF-1R. (In general: SPR reads the build-up and loss of mass on a sensor chip optically.)
The target of assay [8] is full length hIGF-1R from membrane extracts of NIH 3T3 cells overexpressing IGF-1R (human) (UniProt P08069). The assay can be described thus: displacement of 125I-IGF-1 from hIGF-1R captured on FlashPlate.
In assay [9] the target is T3, recombinant human insulin receptor (IR) extracellular domains (R&D Systems) (human, UniProt P06213-2 28-944, limits assumed).
T3 construct: extracellular domain; also called IR ECD
As to the kind of experiment: western blot after SDS-PAGE, 12B1 as probe. On the technique in general: Immunoblotting shows a protein as a band on a membrane.
Procedure: Proteins were analyzed by SDS-PAGE electrophoresis on Criterion 7% homogeneous polyacrylamide gels (BioRad, Marnes la Coquette, France) under reducing and non-reducing conditions. Equivalent quantities of 4, 20 and 100 ng were loaded for pure recombinant IR and IGF-1R ECD whereas higher protein quantities, from 0.2 to 6 μg, were needed for membrane extracts to detect IGF-1R by western blot. Proteins were transferred onto nitrocellulose membrane. […] Proteins were further detected by chemiluminescence (ECL, Amersham Biosciences, Orsay, France) after incubation with a horseradish peroxidase-conjugated anti-mouse IgG polyclonal antibody (Amersham Biosciences, 1:3,000 dilution) for 1 h at room temperature and extensive washes.

Assay [10] has as its target recombinant human IGF-1R extracellular domains (R&D Systems) (human) (UniProt P08069). The assay can be described thus: SPR Biacore X, 5 min injection of 7.4 µg/ml over 439 RU of amine-coupled soluble IGF-1R.
Assay [11] concerns the target T2, IR (insulin receptor) expressed on …. As to the kind of experiment: flow cytometry on Sf9 cells expressing IR. The source says:
At this stage of the selection process, only hybridomas secreting monoclonal antibodies that recognized both the recombinant and the native receptors were selected, cloned, produced and then purified before being tested by FACScan analysis, according to the method described above, on Sf9 insect cells expressing either IGF-IR or IR in order to eliminate hybridomas recognizing both the two receptors.
This is another data set of the same source.

Take “commercially available anti-IGF-1R antibody αIR3”: the MFI is 32 in [1] and 35 in [2].
On to “secondary anti-species antibody coupled to a fluorochrome (Anti-Mouse FITC)”, for which the MFI in assay [3] was found to be 13; in assay [4], 9.

B1: monoclonal antibody 2D10 (antibody, V domains shown)
VH: EVNLVESGGILVKPGGSLRLSCAASGFTFSNYAMSWVRQTPEKRLEWVASIGSAGYIHYPDSVKGRFTISRDNARNILYLQMSSLRSEDTAMYYCAREGGLVWFAYWGQGTLVTVSA
VL: ETTVTQSPASLSVATGEKVTIRCITSTDIDDDMNWYQQKPGEPPKLLISEGNTLRPGVPSRFSSSGYGTDFVLTIENTLSEDVADYYCLQSDKMPLTFGAGTKLELK
Turning to B1, the MFI stood at 42.5 in assay [5] and 10.6 in assay [6].

B2: monoclonal antibody 12D5 (antibody, V domains shown)
VH: QVQLKESGPGLVAPSQSLSITCTVSGFSLNEYGVSWIRQPPGKGLEWLGVIWGGRDTYYHSPLKSRLSITKDNSKSQVFLKMNSLQTDDTAMYYCAKHEGMDYWGQGTSVTVSS
VL: DIVMTQSQKFMSTSVGDRVSVTCKASQNVVTNVAWYQHKPGHSPKPLIYSASYRYSGVPDRFTGSGSGTDFTLTINNVQSEDLAEYFCHQYNNFPLTFGAGTKLELK
For B2, the MFI in assay [5] turned out to be 50; in assay [6], 10.6.

B3: mouse monoclonal antibody 7C10 (anti-IGF-1R) (antibody, from another filing, V domains shown)
VH: DVQLQESGPGLVKPSQSLSLTCSVTGYSITGGYLWNWIRQFPGNKLEWMGYISYDGTNNYKPSLKDRISITRDTSKNQFFLKLNSVTNEDTATYYCARYGRVFFDYWGQGTTLTVSS
VL: DVLMTQIPLSLPVSLGDQASISCRSSQSIVHSNGNTYLQWYLQKPGQSPKLLIYKVSNRLYGVPDRFSGSGSGTDFTLKISSVEAEDLGVYYCFQGSHVPWTFGGGTKLEIK
For B3, the response (RU) in assay [7] came out at 180 RU. Moreover, the IC50 in [8] came to 0.2 nM.

B4: mouse monoclonal antibody 12B1 (anti-IGF-1R) (antibody, mouse IgG1, V domains shown)
VH: QVQLKESGPDLVAPSQSLSITCTVSGFSLTNYGVHWVRQFPGKGLEWLGVIWAGGNTNYNSALMSRLTISKDNSKSQVFLKMNSLQTDDTAVYYCAREYGSTYVAWFAHWGQGTLVTVSS
VL: ENVLTQSPAIMSASPGEKVTMTCGASSSVSSSFLHWYQQKSGASPKLWIYSTSNLASGVPTRFSGSGSGTSYSLTISSVEAEDAATYYCQQYSGYPLTFGAGTKLELK
notes: also called MAb 12B1; clone 12B1
For B4, the binding result in [9] was “no binding (tested: 100 ng per lane)”; in assay [11], “no binding”. The MFI in assay [5] was determined as 54; in assay [6] it was 10.5. The response (RU) in assay [10] was 146 RU.
